The data set concerns the molecule itself. The experiment in a line: crystal structure; DNMT3A(628-912, WT or R882H)-DNMT3L(178-386) tetramer covalently bound to 25-mer zebularine DNA duplex (CGA, CGT or CAG) and SAH; crystals at 4 °C from 0.1 M sodium citrate pH 4.2 or 4.4, PEG8000.

B1: DNMT3A R882H mutant, MTase (C-terminal) domain, residues 628-912 (domain or fragment, UniProt Q9Y6K1 628-912, looked up)
chain: AEKRKPIRVLSLFDGIATGLLVLKDLGIQVDRYIASEVCEDSITVGMVRHQGKIMYVGDVRSVTQKHIQEWGPFDLVIGGSPCNDLSIVNPARKGLYEGTGRLFFEFYRLLHDARPKEGDDRPFFWLFENVVAMGVSDKRDISRFLESNPVMIDAKEVSAAHRARYFWGNLPGMNRPLASTVNDKLELQECLEHGRIAKFSKVRTITTRSNSIKQGKDQHFPVFMNEKEDILWCTEMERVFGFPVHYTDVSNMSHLARQRLLGRSWSVPVIRHLFAPLKEYFACV
modifications: catalytic cysteine C710 covalently linked to zebularine of the DNA (in the crystallised complexes)
notes: DNMT3A, MTase domain (C-terminal domain), residues 628-912, with the AML hotspot mutation R882H; R882H is a mutation found in acute myeloid leukemia patients; it was removed by ULP1; also called R882H-mutated DNMT3A; R882H DNMT3A; source: E. coli BL21 DE3 (RIL), co-expressed with DNMT3L, purified (Ni-NTA, Heparin, SEC); not shown: His6-SUMO, N-terminal, cleaved
Regarding B1, the binding result is “binds”.
